T1: Pep 4 (synthetic Phl p 1-derived peptide) (Phleum pratense (timothy grass))
T1 chain: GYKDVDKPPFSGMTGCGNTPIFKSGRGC

B1: ScFv 25VH/25VL (ScFv engineered from the V regions of the Phl p 1-specific IgE Fab clone 25) (scFv, V domains shown)
VH: LESGGGLVQPGGSLRLSCAASGFTFDDHAMHWVRQTPEKGLQWVSGISWNSGVVAYADSVKGRFSISRDNAKNSLYLQMNNLIPEDTAVYYCVRDFRAASPYFFDYWGQGTRVTVSS
VL: ELTQSPSSLSASVGDRVTITCRASQSIGNYLNWYQQKPGKAPNLLIYAASSLQSGVPSRFSGSGSGTDFTLTISSLQREDFATYYCQQSNRTPITFGQGTRLEIK
B2: P1 IgG1 (complete human monoclonal IgG1 Ab with the V regions of IgE Fab clone 25) (antibody, V domains shown)
VH: B1 VH
VL: B1 VL

Target: T1, Pep 4 (synthetic Phl p 1-derived …)
Assay: ELISA

Binder | binding result
B1 | no binding
B2 | no binding
